Changes are numbered by the printed parent chain. Names and notes keep the numbering of the source.
B1: murine anti-human PD-1 monoclonal antibody secreted by Clone No. 2 (antibody, V domains shown)
VH: EVQLQESGGGLVKPGGSLKLSCAASGFTFSSYGMSWVRQTPEKRLEWVASISGGGRYTYYPDSMKGRFTISRDNAKNNLHLQMSSLRSEDTALYYCVYEYFYTMDYWGQGTSVTVSS
VL: DIVLTQSPATLSVTPGDSVSLSCRANQSISNNLHWYQQRSHESPRLLIRFASQSISGIPSRFSGSGSGTDFTLSINSVETEDFGMYFCQQSDNWPLTFGAGTKLEIK
notes: Hybridoma culture supernatant; Clone No. 2 is the only clone named, so the tie is implicit
B2: BMIV (antibody, human IgG4 S228P, kappa, V domains shown)
VH: B1 VH with Q3N, Q5V, K13Q, K19R, E42G, R44G, A75S, S88A, L93V, S112L
VL: DVVLTQSPATLSVSPGERVTLSCRANQSISNNLHWYQQKSHQSPRLLIRFASQSISGIPARFSGSGSGTDFTLTISSVETEDFGVYFCQQSDNWPLTFGGGTKLEIKR
B3: AH00291 (antibody, human IgG4 S228P, kappa)
heavy: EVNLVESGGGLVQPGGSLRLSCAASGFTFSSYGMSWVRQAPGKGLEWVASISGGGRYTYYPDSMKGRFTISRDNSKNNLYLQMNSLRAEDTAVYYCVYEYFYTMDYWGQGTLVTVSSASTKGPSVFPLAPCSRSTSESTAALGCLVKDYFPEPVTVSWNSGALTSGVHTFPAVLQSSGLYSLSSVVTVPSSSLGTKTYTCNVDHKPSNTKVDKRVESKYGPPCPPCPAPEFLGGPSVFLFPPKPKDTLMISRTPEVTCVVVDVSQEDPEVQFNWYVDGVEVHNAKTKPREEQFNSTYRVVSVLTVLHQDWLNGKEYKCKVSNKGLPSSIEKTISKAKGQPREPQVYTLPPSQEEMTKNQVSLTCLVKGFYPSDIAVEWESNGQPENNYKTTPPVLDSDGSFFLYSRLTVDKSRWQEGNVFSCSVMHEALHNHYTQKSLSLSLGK
light: DIVLTQSPATLSLSPGERATLSCRANQSISNNLHWYQQKPGQAPRLLIRFASQSISGIPARFSGSGSGTDFTLTISSLEPEDFAVYFCQQSDNWPLTFGGGTKVEIKRTVAAPSVFIFPPSDEQLKSGTASVVCLLNNFYPREAKVQWKVDNALQSGNSQESVTEQDSKDSTYSLSSTLTLSKADYEKHKVYACEVTHQGLSSPVTKSFNRGEC
notes: also called humanized anti-human PD-1 monoclonal antibody AH00291
B4: AH00291-N26Q (antibody, human IgG4 S228P, kappa)
heavy: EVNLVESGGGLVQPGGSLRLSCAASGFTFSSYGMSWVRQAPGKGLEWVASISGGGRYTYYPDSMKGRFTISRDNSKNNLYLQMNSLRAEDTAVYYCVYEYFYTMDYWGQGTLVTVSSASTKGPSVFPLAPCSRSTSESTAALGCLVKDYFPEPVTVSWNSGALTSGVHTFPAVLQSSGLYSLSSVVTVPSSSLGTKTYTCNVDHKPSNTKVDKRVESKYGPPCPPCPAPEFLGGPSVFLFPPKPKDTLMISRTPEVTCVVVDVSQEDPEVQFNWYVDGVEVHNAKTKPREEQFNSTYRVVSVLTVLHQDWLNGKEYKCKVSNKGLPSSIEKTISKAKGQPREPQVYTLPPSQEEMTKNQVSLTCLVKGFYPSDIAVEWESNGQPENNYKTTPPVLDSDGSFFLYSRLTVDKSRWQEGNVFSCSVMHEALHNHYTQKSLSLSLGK
light: B3 light with N26Q
B5: AH00295 (antibody, human IgG4 S228P, kappa)
heavy: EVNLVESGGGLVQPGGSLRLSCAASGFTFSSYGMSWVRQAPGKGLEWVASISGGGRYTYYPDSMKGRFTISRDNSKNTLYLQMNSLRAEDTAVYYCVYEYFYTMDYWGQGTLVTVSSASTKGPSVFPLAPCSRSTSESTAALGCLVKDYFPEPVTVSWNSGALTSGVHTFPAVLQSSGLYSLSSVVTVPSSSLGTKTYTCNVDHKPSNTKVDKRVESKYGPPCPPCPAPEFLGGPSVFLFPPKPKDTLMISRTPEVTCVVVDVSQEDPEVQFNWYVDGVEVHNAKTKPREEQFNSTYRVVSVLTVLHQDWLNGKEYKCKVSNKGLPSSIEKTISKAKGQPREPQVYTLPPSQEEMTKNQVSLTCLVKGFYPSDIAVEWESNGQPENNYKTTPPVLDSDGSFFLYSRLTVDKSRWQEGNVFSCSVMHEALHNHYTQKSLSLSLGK
light: B3 light with D1E, I2V
notes: also called humanized anti-human PD-1 monoclonal antibody AH00295
B6: AH00291-S28A (antibody, human IgG4 S228P, kappa)
heavy: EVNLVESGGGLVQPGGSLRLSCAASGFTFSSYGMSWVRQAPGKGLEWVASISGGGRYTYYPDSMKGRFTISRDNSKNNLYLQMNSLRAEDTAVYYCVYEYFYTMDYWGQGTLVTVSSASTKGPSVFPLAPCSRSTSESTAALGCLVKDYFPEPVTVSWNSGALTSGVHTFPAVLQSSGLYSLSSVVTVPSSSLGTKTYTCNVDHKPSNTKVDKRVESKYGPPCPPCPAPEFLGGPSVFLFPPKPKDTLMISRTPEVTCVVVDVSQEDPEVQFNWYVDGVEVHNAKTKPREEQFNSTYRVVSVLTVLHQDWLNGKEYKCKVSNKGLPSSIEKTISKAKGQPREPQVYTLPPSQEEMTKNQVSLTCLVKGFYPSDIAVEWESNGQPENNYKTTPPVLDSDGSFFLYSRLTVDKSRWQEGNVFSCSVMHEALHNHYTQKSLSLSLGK
light: B3 light with S28A
B7: AH00293 (antibody, human IgG4 S228P, kappa, V domains shown)
VH: EVNLVESGGGLVQPGGSLRLSCAASGFTFSSYGMSWVRQAPGKGLEWVASISGGGRYTYYPDSMKGRFTISRDNSKNNLYLQMNSLRAEDTAVYYCVYEYFYTMDYWGQGTLVTVSS
VL: DIVLTQSPATLSLSPGERATLSCRANQSISNNLHWYQQKPGQAPRLLIRFASQSISGIPARFSGSGSGTDFTLTISSLEPEDFAVYYCQQSDNWPLTFGGGTKVEIKR
notes: also called humanized anti-human PD-1 monoclonal antibody AH00293
B8: AH00296 (antibody, human IgG4 S228P, kappa)
heavy: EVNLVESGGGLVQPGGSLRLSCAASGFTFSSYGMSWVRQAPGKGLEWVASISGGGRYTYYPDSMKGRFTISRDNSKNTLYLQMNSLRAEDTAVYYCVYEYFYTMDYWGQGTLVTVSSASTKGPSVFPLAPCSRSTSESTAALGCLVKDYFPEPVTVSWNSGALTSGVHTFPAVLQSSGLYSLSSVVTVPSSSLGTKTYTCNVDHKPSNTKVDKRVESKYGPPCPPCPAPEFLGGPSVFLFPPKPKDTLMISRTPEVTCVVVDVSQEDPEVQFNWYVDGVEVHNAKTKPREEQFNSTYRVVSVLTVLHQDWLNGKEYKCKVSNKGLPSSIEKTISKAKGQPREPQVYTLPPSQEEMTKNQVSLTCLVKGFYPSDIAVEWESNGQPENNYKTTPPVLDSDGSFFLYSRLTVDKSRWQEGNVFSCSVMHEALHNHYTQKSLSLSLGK
light: B3 light
notes: also called humanized anti-human PD-1 monoclonal antibody AH00296
B9: AH00290 (antibody, human IgG4 S228P, kappa, V domains shown)
VH: B7 VH with A49S, N78T
VL: B7 VL with Y87F
notes: also called humanized anti-human PD-1 monoclonal antibody AH00290
B10: AH00296-N26Q (antibody, human IgG4 S228P, kappa, V domains shown)
VH: B7 VH with N78T
VL: B7 VL with N26Q, Y87F
B11: AH00296-S28A (antibody, human IgG4 S228P, kappa, V domains shown)
VH: B7 VH with N78T
VL: B7 VL with S28A, Y87F
B12: AH00291-N26S (antibody, human IgG4 S228P, kappa)
heavy: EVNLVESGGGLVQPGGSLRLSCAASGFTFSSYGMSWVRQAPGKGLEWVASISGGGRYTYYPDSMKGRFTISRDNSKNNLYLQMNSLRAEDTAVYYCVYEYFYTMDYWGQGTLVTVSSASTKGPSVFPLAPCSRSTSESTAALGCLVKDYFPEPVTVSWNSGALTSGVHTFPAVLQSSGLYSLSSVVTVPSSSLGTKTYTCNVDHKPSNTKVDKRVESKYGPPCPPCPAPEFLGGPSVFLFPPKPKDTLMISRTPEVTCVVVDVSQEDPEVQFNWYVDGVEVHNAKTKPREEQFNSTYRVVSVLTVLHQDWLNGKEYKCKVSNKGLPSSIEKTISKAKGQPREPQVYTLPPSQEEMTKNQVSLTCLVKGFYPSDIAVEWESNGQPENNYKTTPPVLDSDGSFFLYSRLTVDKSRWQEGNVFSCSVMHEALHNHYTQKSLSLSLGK
light: B3 light with N26S
B13: AH00294-N26S (antibody, human IgG4 S228P, kappa)
heavy: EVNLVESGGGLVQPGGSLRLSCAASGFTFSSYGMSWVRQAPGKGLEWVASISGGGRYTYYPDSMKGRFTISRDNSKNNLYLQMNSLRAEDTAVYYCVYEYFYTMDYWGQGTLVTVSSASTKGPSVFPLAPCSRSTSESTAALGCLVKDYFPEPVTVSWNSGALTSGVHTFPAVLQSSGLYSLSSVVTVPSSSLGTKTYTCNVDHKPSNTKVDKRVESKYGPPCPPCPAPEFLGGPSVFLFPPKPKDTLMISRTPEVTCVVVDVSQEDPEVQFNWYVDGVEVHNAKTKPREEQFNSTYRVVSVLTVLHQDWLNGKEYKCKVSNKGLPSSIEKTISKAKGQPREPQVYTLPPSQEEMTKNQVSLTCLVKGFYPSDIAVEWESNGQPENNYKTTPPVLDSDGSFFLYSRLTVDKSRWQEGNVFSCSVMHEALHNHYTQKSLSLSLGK
light: B3 light with I2V, N26S
B14: AH00294 (antibody, human IgG4 S228P, kappa)
heavy: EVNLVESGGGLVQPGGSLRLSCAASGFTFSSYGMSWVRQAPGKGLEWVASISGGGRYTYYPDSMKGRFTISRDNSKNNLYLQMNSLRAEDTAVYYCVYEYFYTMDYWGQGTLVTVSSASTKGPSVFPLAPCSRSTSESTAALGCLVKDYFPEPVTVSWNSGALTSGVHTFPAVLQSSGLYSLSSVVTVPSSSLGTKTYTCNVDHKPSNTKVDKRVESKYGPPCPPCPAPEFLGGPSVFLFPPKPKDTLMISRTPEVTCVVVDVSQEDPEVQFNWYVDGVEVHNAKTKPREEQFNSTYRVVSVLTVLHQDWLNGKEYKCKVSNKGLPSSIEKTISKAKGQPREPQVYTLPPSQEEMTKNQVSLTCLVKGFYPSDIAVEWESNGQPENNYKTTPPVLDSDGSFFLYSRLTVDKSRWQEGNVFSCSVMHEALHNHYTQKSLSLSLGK
light: B3 light with I2V
notes: also called humanized anti-human PD-1 monoclonal antibody AH00294
B15: BMIII (antibody, human IgG4 S228P, kappa, V domains shown)
VH: B7 VH with A40T
VL: B2 VL with S40P, H41G, T80P
B16: AH00294-N26Q (antibody, human IgG4 S228P, kappa)
heavy: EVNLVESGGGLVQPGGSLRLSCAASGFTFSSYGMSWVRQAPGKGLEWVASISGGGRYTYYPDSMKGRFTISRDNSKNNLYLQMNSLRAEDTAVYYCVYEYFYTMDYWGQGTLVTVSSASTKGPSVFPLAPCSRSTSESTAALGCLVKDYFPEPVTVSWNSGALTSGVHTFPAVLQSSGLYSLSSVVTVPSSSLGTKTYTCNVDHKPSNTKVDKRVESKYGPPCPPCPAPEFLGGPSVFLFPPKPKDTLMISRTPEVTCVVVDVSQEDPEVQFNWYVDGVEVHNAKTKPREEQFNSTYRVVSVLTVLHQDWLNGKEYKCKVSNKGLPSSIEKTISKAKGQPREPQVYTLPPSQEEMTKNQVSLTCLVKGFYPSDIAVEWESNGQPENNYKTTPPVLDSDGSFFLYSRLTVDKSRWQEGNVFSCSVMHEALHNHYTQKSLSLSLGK
light: B3 light with I2V, N26Q
B17: AH00296-N26S (antibody, human IgG4 S228P, kappa, V domains shown)
VH: B7 VH with N78T
VL: B7 VL with N26S, Y87F
notes: also called AII00296-N26S
B18: AH00294-S28A (antibody, human IgG4 S228P, kappa)
heavy: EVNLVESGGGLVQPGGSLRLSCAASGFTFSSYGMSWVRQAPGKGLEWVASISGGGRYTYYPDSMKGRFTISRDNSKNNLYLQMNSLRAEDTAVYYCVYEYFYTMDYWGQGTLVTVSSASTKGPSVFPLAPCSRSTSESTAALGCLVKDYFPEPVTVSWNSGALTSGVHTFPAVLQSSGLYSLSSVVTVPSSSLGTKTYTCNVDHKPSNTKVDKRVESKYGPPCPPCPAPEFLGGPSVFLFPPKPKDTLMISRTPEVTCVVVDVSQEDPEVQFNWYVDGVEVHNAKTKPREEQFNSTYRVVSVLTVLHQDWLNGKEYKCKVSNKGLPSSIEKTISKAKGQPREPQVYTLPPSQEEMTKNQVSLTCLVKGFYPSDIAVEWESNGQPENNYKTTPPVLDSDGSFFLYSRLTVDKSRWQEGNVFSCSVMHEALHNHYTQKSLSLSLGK
light: B3 light with I2V, S28A
B19: AH00298 (antibody, human IgG4 S228P, kappa)
heavy: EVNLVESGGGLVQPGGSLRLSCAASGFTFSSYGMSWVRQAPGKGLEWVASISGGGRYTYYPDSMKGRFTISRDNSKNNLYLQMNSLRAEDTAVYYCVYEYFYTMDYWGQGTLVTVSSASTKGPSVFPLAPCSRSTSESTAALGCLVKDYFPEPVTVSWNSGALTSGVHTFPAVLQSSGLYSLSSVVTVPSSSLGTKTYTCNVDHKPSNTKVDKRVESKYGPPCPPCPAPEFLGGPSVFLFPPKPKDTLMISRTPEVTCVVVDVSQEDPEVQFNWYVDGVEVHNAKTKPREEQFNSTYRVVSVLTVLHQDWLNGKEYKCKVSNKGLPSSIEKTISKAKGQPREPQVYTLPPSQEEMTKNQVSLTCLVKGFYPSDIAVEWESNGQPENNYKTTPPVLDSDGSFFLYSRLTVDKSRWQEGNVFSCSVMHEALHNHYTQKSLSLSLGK
light: B3 light with D1E, I2V
notes: also called humanized anti-human PD-1 monoclonal antibody AH00298

Each binder was assayed against T1, Recombinant human PD-1-Fc (human, UniProt Q15116 25-167, limits assumed) (assay: competition ELISA, coated human PD-1-Fc, blocked ligand biotin-labeled PD-L1 (final 10 nM), streptavidin-HRP, OD450nm).
T1 construct: also called recombinant human PD-1-Fc protein; not shown: Fc part
T1 sequence (Q15116 25-167 limits assumed): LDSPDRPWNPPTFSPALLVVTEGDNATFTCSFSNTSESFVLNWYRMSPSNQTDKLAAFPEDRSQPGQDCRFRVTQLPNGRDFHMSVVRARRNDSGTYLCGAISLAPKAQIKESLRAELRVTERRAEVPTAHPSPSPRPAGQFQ
Procedure: (§1) The plate was washed five times with PBST. […] The plate was washed five times with PBST. […] The plate was washed five times with PBST. 100 μL/well of colorimetric substrate TMB was added and incubated at room temperature for 10 minutes. Color development was terminated by adding 100 μL/well of 1 M H₂SO₄. The absorbance at 450 nm was read on a microplate reader.

| IC50 | Binder |
| --- | --- |
| 0.838 nM | B1 |

Each binder was assayed against T1, Recombinant human PD-1-Fc (assay: competition ELISA, PD-1-Fc coated, competitor biotin-labeled PD-L1).
Procedure: Recombinant human PD-1-Fc was coated on a 96-well high-absorbing ELISA plate with a carbonate buffer solution with pH 9.6, the coating concentration was 1 μg/mL, the coating amount was 100 μL per well, and the coating was carried at 4° C. out overnight. The plate was washed five times with PBST and blocked with 300 μL/well of PBST containing 1% BSA and incubated at 25° C. for 1 hour. The plate was washed five times with PBST. The positive control and the anti-human PD-1 antibody sample were added, 50 μL per well. […] The plate was washed five times with PBST. Then, Streptavidin-HRP (BD Pharmingen, Catalog Number 554066) 1:1000 diluted in PBST containing 1% BSA was added, 100 μL per well, incubated at 25° C. for 1 hour. The plate was washed five times with PBST. 100 μL/well of colorimetric substrate TMB was added and incubated at room temperature for 10 minutes. Color development was terminated by adding 100 μL/well of 1 M H₂SO₄. The absorbance at 450 nm was read on a microplate reader.

| IC50 | Binder |
| --- | --- |
| 1.3 nM | B2 |
| 1.1 nM | B3 |
| 1.57 nM | B4 |
| 1.19 nM | B5 |
| 1.36 nM | B6 |
| 1.2 nM | B7 |
| 1.21 nM | B8 |
| 1.09 nM | B9 |
| 1.27 nM | B10 |
| 1.75 nM | B11 |
| 1.43 nM | B12 |
| 1.48 nM | B13 |
| 1.35 nM | B14 |
| 1.2 nM | B15 |
| 1.49 nM | B16 |
| 1.07 nM | B17 |
| 1.46 nM | B18 |
| 1.22 nM | B19 |

Each binder was assayed against T2, Recombinant human PD-1 (Sino Biological Inc., Catalog Number 10377-H08H) (human, UniProt Q15116 25-167) (assay: ELISA, human PD-1 coated).
T2 construct: Bought protein; also called antigen PD-1
T2 sequence (Q15116 25-167 limits assumed): as above
Procedure: Recombinant human PD-1 (purchased from Sino Biological Inc.) was coated on a 96-well high-absorbing ELISA plate with a carbonate buffer solution with pH 9.6, the coating concentration was 1 μg/mL, the coating amount was 100 μL per well, and the coating was carried out at 4° C. overnight. The plate was washed five times with PBST and blocked with 300 μL/well of PBST containing 1% BSA, and then incubated at 25° C. for 1 hour. The plate was washed five times with PBST. […] The plate was washed five times with PBST. Then, horseradish peroxidase-labeled anti-human IgG antibody (Chemicon, Catalog Number AP309P) 1:2000 diluted in PBST containing 1% BSA was added, 100 μL per well, incubated at 25° C. for 1 hour. The plate was washed five times with PBST. 100 μL/well of colorimetric substrate TMB was added and incubated at room temperature for 10 minutes. Color development was terminated by adding 100 μL/well of 1 M H₂SO₄. The absorbance at 450 nm was read on a microplate reader.

| EC50 | Binder |
| --- | --- |
| 0.028 nM | B2 |
| 0.025 nM | B3 |
| 0.046 nM | B4 |
| 0.025 nM | B5 |
| 0.042 nM | B6 |
| 0.026 nM | B7 |
| 0.027 nM | B8 |
| 0.024 nM | B9 |
| 0.044 nM | B10 |
| 0.048 nM | B11 |
| 0.039 nM | B12 |
| 0.043 nM | B13 |
| 0.032 nM | B14 |
| 0.034 nM | B15 |
| 0.041 nM | B16 |
| 0.037 nM | B17 |
| 0.047 nM | B18 |
| 0.028 nM | B19 |

These binders were tested against T2, Recombinant human PD-1 (Sino Biological …) (assay: ELISA, coated recombinant human PD-1 (1 ug/mL), detection with anti-mouse IgG-HRP, OD450nm).
Procedure: as §1

| EC50 | Binder |
| --- | --- |
| 0.052 nM | B1 |

— patent US20190367615A1 (BEIJING HANMI PHARM, published 2019)
